Measurements taken from patent US20030212253A1 (AMERICAN NATIONAL RED CROSS, published 2003).
Non-standard residues stand in square brackets, D forms with d. No end group written: not given here. 2Nal = N[C@@H](Cc1ccc2ccccc2c1)C(=O)O; Ahx = NCCCCCC(=O)O

Key:
[1] = molecular target: fibrinogen (human plasma) (human) (UniProt P02671); test: affinity chromatography of 5 ml plasma on 0.8 ml peptide resin column
[2] = molecular target: fibrinogen (human plasma) (human) (UniProt P02671); test: affinity chromatography of plasma on peptide resin, Evaluation 1; nephelometric fibrinogen antigen
[3] = molecular target: fibrinogen (human plasma) (human) (UniProt P02671); test: affinity chromatography of plasma on peptide resin, Evaluation 2; nephelometric fibrinogen antigen
[4] = molecular target: fibrinogen (human plasma) (human) (UniProt P02671); test: affinity chromatography of plasma on peptide resin, Evaluation 2, load 51 mg; nephelometric fibrinogen antigen
[5] = molecular target: fibrinogen (human plasma) (human) (UniProt P02671); test: affinity chromatography of plasma on peptide resin, Evaluation 1, load 51 mg; nephelometric fibrinogen antigen
[6] = molecular target: fibrinogen (human plasma) (human) (UniProt P02671); test: affinity chromatography of plasma on peptide resin, ligand density 0.67-0.94 mmol/g resin
[7] = molecular target: vWF/fVIII complex (human plasma) (human) (UniProt P04275); test: batch binding of pooled human plasma to peptide resin, then column elution; fVIII coagulation assay
[8] = molecular target: vWF/fVIII complex (human plasma) (human) (UniProt P04275); test: batch binding of pooled human plasma to peptide resin, then column elution; load 8.46 IU; fVIII coagulation assay
[9] = molecular target: vWF/fVIII complex (human plasma) (human) (UniProt P04275); test: batch binding of pooled human plasma to peptide resin, then column elution; fVIII chromogenic assay
[10] = molecular target: vWF/fVIII complex (human plasma) (human) (UniProt P04275); test: batch binding of 20 ml pooled human plasma to 0.8 ml peptide resin, then column elution; load 21.4 IU; fVIII chromogenic assay
albumin (human plasma) = molecular target: T1, albumin (human plasma) (human, UniProt P02768 25-609); test: affinity chromatography of fibrinogen- and Apo-A1-depleted plasma on peptide resin, 0.020 M sodium citrate; nephelometry
T1 construct: mature
Procedure: Fibrinogen and Apo-A1 lipoprotein-depleted plasma (prepared in Example 5) was loaded at a linear velocity of 30 cm/hour (0.4 ml/min; RT=5.1) onto 2.0 ml column (CF=0.785 cm²) that had been equilibrated with 0.14 M NaCl, 0.020 M sodium citrate, pH 7.0 (EQ buffer). After the column was washed with EQ buffer and 2.0 M NaCl, 0.020 M sodium citrate, pH 6.0, to baseline, the API protein was eluted with 2.0 M NaCl, 1% Tween 20, 0.020 M sodium citrate, pH 6.0. The column was regenerated with 2.0 M guanidine-HCl, 2% Sarkosyl and 2% acetic acid and stored in 20% methanol. […] Not all of the API was quantitatively eluted, but could be eluted using 2M guanidine. Purification of API protein to approximately 70% purity was accomplished with ligand HFVAPH (SEQ ID NO: 46) (isolated from an L-Library).

HWQ (SEQ ID NO: 7) peptide attached to a chromatography resin
dynamic resin capacity [1]: 5 to 8 mg

[dA]RQFDF[Ahx] (also: D- prefix in name, which residues are D is not settled) [D-ARQFDF (SEQ ID NO: 20) peptide displayed on ToyoPearl AF-Amino 650 M resin]
fibrinogen in flow thru + post wash [2]: < 0.15 mg/mL | recovery of fibrinogen in elution (%) [2]: 91% | fibrinogen in flow thru + post wash [3]: < 0.15 mg/mL | recovery of fibrinogen in elution (%) [3]: 100% | total fibrinogen in elution [4]: 54 mg | total fibrinogen in elution [5]: 46 mg | dynamic resin capacity [6]: 6 to 8 g/L of resin

EAD[2Nal]ED (not fully specified (C-terminus)) [D-EADna2′ED (SEQ ID NO: 66) resin]
FVIII recovery in elution 1, 0.75 M NaCl (%), coagulation assay [7]: 46% | FVIII recovery in elution 2, 1.0 M NaCl (%), coagulation assay [7]: 0% | FVIII recovery in flow-through (%), coagulation assay [7]: 18.9% | FVIII recovery in wash, 0.5 M NaCl (%), coagulation assay [7]: 0% | total FVIII in elution 1, 0.75 M NaCl (IU), coagulation assay [7]: 3.9 IU | total FVIII in elution 2, 1.0 M NaCl (IU), coagulation assay [7]: 0 IU | total FVIII in wash, 0.5 M NaCl (IU), coagulation assay [7]: 0 IU | total FVIII in flow-through (IU), coagulation assay [8]: 1.6 IU | FVIII recovery in elution 1, 0.75 M NaCl (%), chromogenic assay [9]: 21.5% | FVIII recovery in elution 2, 1.0 M NaCl (%), chromogenic assay [9]: 0% | FVIII recovery in flow-through (%), chromogenic assay [9]: 7.5% | FVIII recovery in wash, 0.5 M NaCl (%), chromogenic assay [9]: 5.6% | total FVIII in elution 1, 0.75 M NaCl (IU), chromogenic assay [9]: 4.6 IU | total FVIII in elution 2, 1.0 M NaCl (IU), chromogenic assay [9]: 0 IU | total FVIII in wash, 0.5 M NaCl (IU), chromogenic assay [9]: 1.2 IU | total FVIII in flow-through (IU), chromogenic assay [10]: 1.6 IU

HFVAPH (also: immobilised on resin via C-terminus, Immobilised on chromatography resin) [L-HFVAPH (SEQ ID NO: 46) peptide ligand displayed on resin]
binding result (albumin (human plasma)): no binding
